Assay results: article PMC8263732, “M1BP cooperates with CP190 to activate transcription at TAD borders and promote chromatin insulator activity” (Nature Communications, 2021)

T1: Suppressor of Hairy wing [Su(Hw)] (Drosophila (endogenous in 0-24 h Oregon …, UniProt P08970 1-941))
T1 construct: endogenous protein in embryonic nuclear extract; source: endogenous, nuclear extract of 0-24 h Drosophila embryos
T1 sequence (looked up): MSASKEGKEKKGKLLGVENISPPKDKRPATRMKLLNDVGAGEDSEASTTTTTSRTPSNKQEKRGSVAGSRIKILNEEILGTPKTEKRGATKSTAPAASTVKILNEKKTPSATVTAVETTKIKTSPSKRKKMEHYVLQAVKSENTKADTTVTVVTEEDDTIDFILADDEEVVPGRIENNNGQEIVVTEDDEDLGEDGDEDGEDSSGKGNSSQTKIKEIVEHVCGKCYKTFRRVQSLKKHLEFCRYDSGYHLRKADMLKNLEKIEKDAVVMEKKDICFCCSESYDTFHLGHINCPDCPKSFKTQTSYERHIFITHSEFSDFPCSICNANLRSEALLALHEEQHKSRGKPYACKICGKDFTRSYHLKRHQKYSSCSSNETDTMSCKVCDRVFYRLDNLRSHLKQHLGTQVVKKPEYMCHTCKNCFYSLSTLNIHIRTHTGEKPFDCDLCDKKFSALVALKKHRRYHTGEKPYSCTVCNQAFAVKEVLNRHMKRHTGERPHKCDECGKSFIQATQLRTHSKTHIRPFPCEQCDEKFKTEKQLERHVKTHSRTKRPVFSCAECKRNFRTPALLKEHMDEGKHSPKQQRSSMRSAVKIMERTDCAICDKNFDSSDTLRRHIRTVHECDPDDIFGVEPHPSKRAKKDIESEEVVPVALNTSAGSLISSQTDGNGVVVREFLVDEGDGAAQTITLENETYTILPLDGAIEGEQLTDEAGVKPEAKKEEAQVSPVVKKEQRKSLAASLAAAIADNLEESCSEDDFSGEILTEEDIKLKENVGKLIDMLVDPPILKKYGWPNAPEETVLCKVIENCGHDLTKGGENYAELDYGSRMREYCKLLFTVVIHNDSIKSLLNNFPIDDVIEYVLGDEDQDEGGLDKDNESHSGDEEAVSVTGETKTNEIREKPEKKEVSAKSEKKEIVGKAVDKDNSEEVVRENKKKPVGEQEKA

B1: Motif 1 Binding Protein (M1BP) (natural protein, UniProt Q9VHM3 1-418, looked up)
chain: MSKSALKHLKSTCRVCAKYASNKRSPKLFERSNTKMIDNIEALTGLRLENYGCLPDQICECCSMELASAVKLRERCIAAQRELLLGLTEEQRQGISAFYRAAVMGEDIVQTVKTPDDDEVYATYQEIVLEEPKEEIDDTKVEYDNTYYEVAEGHAGEDDAASLIEEADYDSIMAEDEEQQQTLELDEDTELIVGDVNDAYVYDSDDEVAVLDNVLDDEYEHENIVVKKCSLPPKPKVRSDDARRRGTGGVYICEQCGNHIKGRMAFELHCRRHRGDKQFGCELCQSRFCTTSELKRHMRKHTGERPFACKYCGRCFTDYTTRVKHERTHTNERPYVCGTCGKAFTTGYILKNHMLIHSGERAYRCELCDKSFMLPTHLSTHFRSGVHKRHLEKAEMKQVLEQEQKRELKEEEEDSLHI
notes: endogenous protein in embryonic nuclear extract; source: endogenous, nuclear extract of 0-24 h Drosophila embryos
B2: Modifier of mdg4 [Mod(mdg4)] 67.2 kDa isoform [Mod(mdg4)67.2] (natural protein, UniProt Q86B87 1-610, looked up)
chain: MADDEQFSLCWNNFNTNLSAGFHESLCRGDLVDVSLAAEGQIVKAHRLVLSVCSPFFRKMFTQMPSNTHAIVFLNNVSHSALKDLIQFMYCGEVNVKQDALPAFISTAESLQIKGLTDNDPAPQPPQESSPPPAAPHVQQQQIPAQRVQRQQPRASARYKIETVDDGLGDEKQSTTQIVIQTTAAPQATIVQQQQPQQAAQQIQSQQLQTGTTTTATLVSTNKRSAQRSSLTPASSSAGVKRSKTSTSANVMDPLDSTTETGATTTAQLVPQQITVQTSVVSAAEAKLHQQSPQQVRQEEAEYIDLPMELPTKSEPDYSEDHGDAAGDAEGTYVEDDTYGDMRYDDSYFTENEDAGNQTAANTSGGGVTATTSKAVVKQQSQNYSESSFVDTSGDQGNTEAQAATSASATKIPPRKRGRPKTKVEDQTPKPKLLEKLQAATLNEEASEPAVYASTTKGGVKLIFNGHLFKFSFRKADYSVFQCCYREHGEECKVRVVCDQKRVFPYEGEHVHFMQASDKSCLPSQFMPGESGVISSLSPSKELLMKNTTKLEEADDKEDEDFEEFEIQEIDEIELDEPEKTPAKEEEVDPNDFREKIKRRLQKALQNKKK
notes: Modifier of mdg4, the 67.2 kDa isoform, Drosophila; The gene has many isoforms; the 67.2 kDa isoform is meant; to be checked; source: endogenous, nuclear extract of 0-24 h Drosophila embryos
B3: Centrosomal protein 190 (CP190) (natural protein, UniProt Q24478 1-1096, looked up)
chain: MGEVKSVKVDNWGVFFLQKLQNFFNKTDYCDLTLQFRDNSQLKVHRLVLSACTDYFNVLEQTCEIVDDALIMPNEFQADVVVPIVNFMYTGTLEFELKMYGKLLRTAKEMNMTVLLKLLEAHRRTMENVNRQQRPPSPKGIRRRTVGQPSSGLPQQRVLGPSPQSRNVATPIAQRANTQRGSTGNTMSRTSGGSNRSPYGDSSNVKQEPTSPFEQLRKGYNNNKRPAQTSLLSPPSKKPSLEEVKEFAEQQRMRKQIAAEYGDNDPEYDGGMLYDDVHAGDDDDDDMPPQPSTSKQQSPQGTQTQLEHGSTTIILKQDSPSQTPTIIVKDSSNAKLNHTKIIAEVLRQYPHIVKGHKNIKLKIMPNTPAAPTEKSAPATVKPPANQSSATTSPHKKLHVSFKADKSTPLITAQQKAASSQQKSGTSQTTGNQGTGANPPANTAAAQKRRIDSKTMHALIAQGAENTTGPWLCLRCGVNGRPISIPSYRGFRRHLINTHKETIDPALCEHCGWRSVNNRELHFHMYMEHQTKSLLYTFAECALCNQSYRTKGELEAHINEVHTDDNKQQCIYCNKVFEQELQLYRHMKSYHKEQALEDGIIDETDEEFLGSQDEEEEAEGDEEQEPEQTGKVRILSDISLPATSAITVQQAQQEQLQEEDVEQVQQEVKFVGADGNEVELTDEQRKEILSQLNQQQAGATAGGVVMVLSEPEAEHVKQETDEKSLAGTEEEYDDSQIYSELGAADSVESAKKNIADESKESIDNLEWAENLIAESEEQSNKEPKSDKPRDDISEKLKELTGDWTEDENDDDVDDKPATAELASELANKDPEPTVHEEEDDIDLALQSLHKGPEEATEEKASEESVTSADDAVDAVPNINSQPEKMDVDSEAADEKASKAEVQIKKEAELENDQEEFIKEDSPIPHSDSVAELREAVTASEGEDDVHLEADNIRKELLDELIAEAEKPDQEKDIVQSEENATTEALDRSVTDEDDLVPPTQVSTEQMEIDEPAAEKAAENNEDTRTADEKEAVEDKPNQTQDVTTAEKPTLESAKAGDEATSGEAASVDKVKSLISEWGDDDEDEDENGVSAAAKEEL
notes: Centrosomal protein 190 (CP190), universal insulator protein of Drosophila; endogenous protein in embryonic nuclear extract; source: endogenous, nuclear extract of 0-24 h Drosophila embryos

What was measured:
Test in all cases: co-IP; 500 ug nuclear extract of 0-24 h Drosophila embryos incubated overnight at 4 C with antiserum (anti-Su(Hw), anti-CP190, anti-Mod(mdg4)67.2 or anti-M1BP; normal serum as control) cross-linked to Protein A or G Sepharose; washed twice with HBSMT and once with HBSM; western blotting; efficiency as percent of total input protein
Details in all cases: partners not purified
[1] = biological target: B3
[2] = biological target: T1, Suppressor of Hairy wing [Su(Hw)]
[3] = biological target: B2
[4] = biological target: B1

| percent of total protein immunoprecipitated with anti-CP190 [1] [%] | percent of total protein immunoprecipitated with anti-Su(Hw) [2] [%] | percent of total protein immunoprecipitated with anti-Mod(mdg4)67.2 [3] [%] | percent of total protein immunoprecipitated with anti-M1BP [4] [%] | Binder |
| --- | --- | --- | --- | --- |
| 3.8 | 5.3 | 3 |  | B1 |
| 8.2 | 1.9 |  | 1.4 | B2 |
|  | 5.2 | 11 | 3.8 | B3 |
